The source of these data is paper PMC7213743, “ArdC, a ssDNA-binding protein with a metalloprotease domain, overpasses the recipient hsdRMS restriction system broadening conjugation host range”.

The target of data set [1] is T1, ArdC (Escherichia coli plasmid R388 …, UniProt Q6I6B2 22-318).
T1 sequence: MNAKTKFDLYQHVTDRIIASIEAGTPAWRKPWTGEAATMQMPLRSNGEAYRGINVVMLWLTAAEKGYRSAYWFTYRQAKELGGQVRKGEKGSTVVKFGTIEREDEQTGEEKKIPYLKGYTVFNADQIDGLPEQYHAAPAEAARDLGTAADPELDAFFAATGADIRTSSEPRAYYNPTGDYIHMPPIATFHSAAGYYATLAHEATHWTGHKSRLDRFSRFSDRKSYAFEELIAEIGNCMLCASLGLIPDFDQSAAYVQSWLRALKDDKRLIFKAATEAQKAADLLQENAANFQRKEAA
The data set can be described thus: EMSA; 0-1 uM ArdC, 50 nM DNA; preferred over dsDNA; EMSA: 50 mM NaCl, 25 mM Tris-HCl pH 7.5, 0.5 mM EDTA, room temperature 30 min, 50 nM DNA; 10% native PAGE in cold 1x TBE. To be noted: protein: recombinant; label: 6FAM (5'); single strand. In general terms: Mobility shift assays separate free from complexed probe on a gel.

Data set [2] concerns the target T1, ArdC. Description: EMSA; 0-1 uM ArdC, 50 nM DNA; preferred over blunt duplex; EMSA: 50 mM NaCl, 25 mM Tris-HCl pH 7.5, 0.5 mM EDTA, room temperature 30 min, 50 nM DNA; 10% native PAGE in cold 1x TBE. Conditions: protein: recombinant, label: 6FAM (5' of strand 1).

B1: Fluor-T87I2 (45 b ssDNA) (ssDNA)
DNA: TACGCTCTTGGGCGCGCTGAATATGAGGTCAAGGCCGATGCGCTC
On to B1, for which the binding result in data set [1] was “binds”.

B2: Fluor-T87I2 + Mid2 (partial duplex) (mixed)
DNA 1: B1 DNA
DNA 2: CTCATATTCAGCGCGCCCAAGAGCGTA
Regarding B2, the binding result in data set [2] (27 bp duplex, 3' overhang 18 nt (strand 1)) was “binds”.

B3: Fluor-T87I2 + Mid1 (partial duplex) (mixed)
DNA 1: B1 DNA
DNA 2: GAGCGCATCGGCCTTGAC
For B3, the binding result in data set [2] (18 bp duplex, 5' overhang 27 nt (strand 1)) is listed as “binds”.
